T1: BCMA on transiently transfected cells (UniProt Q02223 1-184, limits assumed)
T1 construct: whole, on cells
T1 sequence (looked up): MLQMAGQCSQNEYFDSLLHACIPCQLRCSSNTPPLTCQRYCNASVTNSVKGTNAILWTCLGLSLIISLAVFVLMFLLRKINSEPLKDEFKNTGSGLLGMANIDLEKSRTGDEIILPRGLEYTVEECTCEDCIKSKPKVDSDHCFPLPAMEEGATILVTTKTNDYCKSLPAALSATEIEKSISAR

T2: DR6 on transiently transfected cells (UniProt O75509 42-655, limits assumed)
T2 construct: whole, on cells
T2 sequence (looked up): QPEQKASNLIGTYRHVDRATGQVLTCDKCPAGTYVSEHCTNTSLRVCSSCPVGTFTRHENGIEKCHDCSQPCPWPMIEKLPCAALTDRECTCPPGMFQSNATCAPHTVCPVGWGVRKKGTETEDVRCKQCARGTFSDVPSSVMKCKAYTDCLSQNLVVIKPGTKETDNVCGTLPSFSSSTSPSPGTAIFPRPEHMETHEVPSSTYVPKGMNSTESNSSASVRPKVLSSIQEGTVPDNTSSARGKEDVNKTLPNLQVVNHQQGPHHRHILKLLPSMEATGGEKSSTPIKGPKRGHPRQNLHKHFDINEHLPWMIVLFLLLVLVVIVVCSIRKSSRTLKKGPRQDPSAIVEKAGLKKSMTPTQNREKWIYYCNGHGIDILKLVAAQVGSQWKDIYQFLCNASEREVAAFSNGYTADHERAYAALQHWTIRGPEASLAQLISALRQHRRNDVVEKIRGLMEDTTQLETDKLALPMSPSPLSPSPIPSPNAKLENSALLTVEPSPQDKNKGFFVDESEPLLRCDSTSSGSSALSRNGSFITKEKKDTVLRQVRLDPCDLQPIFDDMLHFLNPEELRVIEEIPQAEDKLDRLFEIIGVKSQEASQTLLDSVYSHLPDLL

T3: DR4 on transiently transfected cells (UniProt O00220 24-468, limits assumed)
T3 construct: whole, on cells
T3 sequence (looked up): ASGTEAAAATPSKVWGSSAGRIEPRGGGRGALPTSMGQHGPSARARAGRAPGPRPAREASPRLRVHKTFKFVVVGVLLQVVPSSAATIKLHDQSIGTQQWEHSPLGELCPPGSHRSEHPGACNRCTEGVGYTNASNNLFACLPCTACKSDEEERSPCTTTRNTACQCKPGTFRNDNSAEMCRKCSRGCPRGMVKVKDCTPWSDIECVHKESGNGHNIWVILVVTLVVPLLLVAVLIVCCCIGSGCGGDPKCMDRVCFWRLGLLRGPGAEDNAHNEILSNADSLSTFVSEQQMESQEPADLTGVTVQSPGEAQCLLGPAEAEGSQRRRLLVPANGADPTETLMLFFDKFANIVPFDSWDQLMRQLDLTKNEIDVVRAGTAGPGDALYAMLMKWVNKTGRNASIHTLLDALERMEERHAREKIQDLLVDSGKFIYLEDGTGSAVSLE

T4: DcR2 on transiently transfected cells (UniProt Q9UBN6 56-386, limits assumed)
T4 construct: whole, on cells
T4 sequence (looked up): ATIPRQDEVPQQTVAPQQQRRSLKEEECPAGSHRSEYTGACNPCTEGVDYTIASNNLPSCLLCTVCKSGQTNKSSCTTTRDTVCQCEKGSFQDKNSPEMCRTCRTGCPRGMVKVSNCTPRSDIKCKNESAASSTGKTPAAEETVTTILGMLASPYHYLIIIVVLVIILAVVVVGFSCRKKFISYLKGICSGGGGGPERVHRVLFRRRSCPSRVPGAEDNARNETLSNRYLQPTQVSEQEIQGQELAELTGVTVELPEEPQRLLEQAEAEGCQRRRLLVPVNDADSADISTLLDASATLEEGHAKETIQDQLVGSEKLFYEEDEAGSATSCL

T5: TNFR2 on transiently transfected cells (UniProt P20333 23-461, limits assumed)
T5 construct: whole, on cells
T5 sequence (looked up): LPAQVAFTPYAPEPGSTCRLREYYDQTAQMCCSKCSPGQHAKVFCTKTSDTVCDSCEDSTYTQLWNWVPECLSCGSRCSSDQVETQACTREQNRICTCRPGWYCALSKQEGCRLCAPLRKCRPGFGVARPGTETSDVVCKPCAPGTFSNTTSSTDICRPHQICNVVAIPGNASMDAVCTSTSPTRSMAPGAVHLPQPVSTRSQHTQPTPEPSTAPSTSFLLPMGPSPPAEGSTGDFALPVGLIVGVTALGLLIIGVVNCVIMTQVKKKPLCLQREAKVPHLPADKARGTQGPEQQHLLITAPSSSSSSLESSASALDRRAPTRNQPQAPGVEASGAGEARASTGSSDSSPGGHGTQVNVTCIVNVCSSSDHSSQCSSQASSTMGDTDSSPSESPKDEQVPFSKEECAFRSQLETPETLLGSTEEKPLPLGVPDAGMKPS

B1: FLAG-tagged soluble TNF-gamma-beta (aa 72-251) (ligand)
chain: LKGQEFAPSHQQVYAPLRADGDKPRAHLTVVRQTPTQHFKNQFPALHWEHELGLAFTKNRMNYTNKFLLIPESGDYFIYSQVTFRGMTSECSEIRQAGRPNKPDSITVVITKVTDSYPEPTQLLMGTKSVCEVGSNWFQPIYLGAMFSLQEGDKLMVNVSDISLVDYTKEDKTFFGAFLL
notes: also called FLAG-TL1β; FLAG-TNF-gamma-beta; not shown: The N-terminal FLAG tag (pFLAG-CMV-1 vector) and any vector linker

Key:
[1] = system: adult bovine aortic endothelial cells; experiment: Endothelial cell apoptosis; assay type: cell-based
[2] = biological target: T6, 4-1BB on transiently transfected cells (UniProt Q07011 24-255); experiment: flow cytometry on transiently transfected cells
T6 construct: whole, on cells
T6 sequence (Q07011 24-255): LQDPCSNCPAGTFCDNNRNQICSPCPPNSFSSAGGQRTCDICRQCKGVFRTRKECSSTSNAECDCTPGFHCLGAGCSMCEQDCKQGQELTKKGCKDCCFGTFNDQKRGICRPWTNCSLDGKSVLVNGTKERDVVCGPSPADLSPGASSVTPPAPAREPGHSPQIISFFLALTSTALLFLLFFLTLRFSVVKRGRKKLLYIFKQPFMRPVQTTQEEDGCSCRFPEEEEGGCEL
Method: (§1) One million cells, in 0.1 ml of FACS buffer (PBS, 0.1% BSA, 0.1% NaN₃), were incubated with 0.1-1 microgram of protein or antibody at RT for 15 min. The cells were washed with 3 ml of FACS buffer, reacted with biotinylated primary antibody, and stained with PE-conjugated secondary antibody at RT for 15 min. Cells were then washed again, resuspended in 0.5 microgram/ml of propidium iodide, and live cells were gated and analyzed on a FACScan using the CellQuest software (BD Biosciences).

[3] = biological target: T1, BCMA on transiently transfected cells; experiment: flow cytometry on transiently transfected cells
Method: as §1

[4] = biological target: T2, DR6 on transiently transfected cells; experiment: flow cytometry on transiently transfected cells
Method: as §1

[5] = biological target: T3, DR4 on transiently transfected cells; experiment: flow cytometry on transiently transfected cells
Method: as §1

[6] = biological target: T4, DcR2 on transiently transfected cells; experiment: flow cytometry on transiently transfected cells
Method: as §1

[7] = biological target: T7, DR5 on transiently transfected cells (UniProt O14763 56-440, limits assumed); experiment: flow cytometry on transiently transfected cells
T7 construct: whole, on cells
Method: as §1

[8] = biological target: T5, TNFR2 on transiently transfected cells; experiment: flow cytometry on transiently transfected cells
Method: as §1

| Molecule | apoptosis [1] | binding result [2] | binding result [3] | binding result [4] | binding result [5] | binding result [6] | binding result [7] | binding result [8] |
| --- | --- | --- | --- | --- | --- | --- | --- | --- |
| TNF-gamma: new member of the tumor necrosis factor family; the term refers to TNF-gamma-alpha and/or TNF-gamma-beta | induces apoptosis | – | – | – | – | – | – | – |
| B1 | – | no binding | no binding | no binding | no binding | no binding | no binding | no binding |
